Assay results taken from patent US20230235058A1 (OXFORD UNIVERSITY INNOVATION, published 2023).

T1: human FcγR2A 131R (human, UniProt P12318 34-217)
T1 construct: extracellular domain
T1 sequence (looked up): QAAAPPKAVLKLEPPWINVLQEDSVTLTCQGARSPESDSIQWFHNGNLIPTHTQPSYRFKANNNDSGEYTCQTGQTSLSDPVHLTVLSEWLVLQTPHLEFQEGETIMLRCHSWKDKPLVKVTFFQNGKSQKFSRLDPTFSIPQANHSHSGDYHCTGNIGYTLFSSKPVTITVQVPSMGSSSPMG

T2: human FcγR2B (human, UniProt P31994 43-217)
T2 construct: extracellular domain; also called hFcγR2B; CD32B
T2 sequence (looked up): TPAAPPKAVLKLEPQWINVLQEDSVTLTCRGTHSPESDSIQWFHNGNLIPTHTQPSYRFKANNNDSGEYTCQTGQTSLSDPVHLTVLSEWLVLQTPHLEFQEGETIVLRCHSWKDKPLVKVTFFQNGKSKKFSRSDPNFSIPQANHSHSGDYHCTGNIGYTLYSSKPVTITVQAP

T3: soluble cynomolgus macaque BTLA extracellular domain (BTLA K31-R151) (cynomolgus macaque)
T3 construct: also called cynomolgus BTLA; cyno BTLA
T3 chain: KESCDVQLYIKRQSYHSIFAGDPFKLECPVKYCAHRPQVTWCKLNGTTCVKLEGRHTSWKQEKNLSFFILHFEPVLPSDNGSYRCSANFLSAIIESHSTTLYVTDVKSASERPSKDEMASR


Key:
[1] = target: full length human BTLA expressed on cells (human, UniProt Q7Z6A9 31-289); experiment: cell-based or functional assay
[2] = target: chimeric BTLA of humanised-BTLA mice (human extracellular region, murine transmembrane and signaling … (human; mouse, UniProt Q7TSA3 184-306, limits assumed); experiment: cell-based or functional assay
[3] = target: T4, monomeric soluble human BTLA extracellular domain (BTLA K31-R151) (human, UniProt Q7Z6A9 31-151); experiment: SPR 37C, mAb captured, BTLA ECD analyte;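 further: Anti-BTLA mouse antibodies captured on a sensor chip via polyclonal anti-mouse IgG, isotype control antibody in reference channel, rates fitted after reference and blank subtraction to derive Kd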
T4 construct: also called hBTLA; monomeric BTLA
Protocol: Mouse antibody capture kit (GE Healthcare) was used to coat a Series S CMS Sensor Chip (GE Healthcare) with polyclonal anti-mouse IgG. Anti-BTLA antibody was then captured onto the biosensor surface and a negative control antibody (clone Mopc21; Biolegend) captured in the reference channel. […] Association and dissociation rates were fitted using BiaEvaluation Software (GE Healthcare) after reference and blank subtractions, and dissociation constants were calculated (FIG. 1b).

human FcRn = target: T5, human FcRn (human, UniProt P55899 24-297; P61769 21-119, limits assumed, biotinylated); experiment: SPR, pH6.0
T5 construct: bought; also called FcRn pH6
Protocol: For the high affinity FcR interactions (FcγR1A, and also FcRn assessed at pH6.0) the binding was assessed in a kinetic analysis with antibody as analyte. […] Reference flow cell 1 was left empty in all channels. Purified antibody was then injected at a single concentration and on/off rates calculated by curve fitting on BiaEvaluation software. […] IgG Fc has two binding sites for FcRn so this assessment performed with FcRn immobilised at high density provides an avidity estimate for the interaction rather than a true KD.

human FcγR2A 131R = target: T1, human FcγR2A 131R; experiment: SPR 37C, steady state;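 further: fc variants captured on chip-bound human BTLA ectodomain, recombinant FcγR ectodomains injected as analyte at varied concentrations, double-referenced equilibrium binding fitted to Langmuir model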
Protocol: (§1) For the low affinity FcγRs (FcγR2A, FcγR2B, FcγR3A and FcγR3B) the interactions were assessed by surface plasmon resonance with the recombinantly expressed FcRs (extracellular domains only) as analyte. Briefly, recombinant human BTLA extracellular domain (BTLA^K31-R151) was covalently immobilised to both flow cells of all channels of a CMS Series S sensor chip using the GE Healthcare Amine coupling kit. The 2.8.6 Fc variant to be assessed was then captured (approx. 500-1000 response units) in flow cell 2 of each channel. Steady state affinity analysis was then performed by injecting varying concentrations of FcR in multiple cycles and measuring equilibrium binding. Double referencing was used (subtracting the signal in the reference Fc1 and also subtracting the signal from a blank zero concentration injection). KDs were calculated from the Langmuir curves (plotting equilibrium binding against analyte concentration to determine the concentration required for half maximal binding).

human FcγR2B = target: T2, human FcγR2B; experiment: SPR 37C, steady state;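 further: fc variants captured on chip-bound human BTLA ectodomain, recombinant FcγR ectodomains injected as analyte at varied concentrations, double-referenced equilibrium binding fitted to Langmuir model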
Protocol: as §1

human FcγR3A 158V = target: T6, human FcγR3A 158V (human, UniProt P08637 17-208); experiment: SPR 37C, steady state;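 further: fc variants captured on chip-bound human BTLA ectodomain, recombinant FcγR ectodomains injected as analyte at varied concentrations, double-referenced equilibrium binding fitted to Langmuir model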
T6 construct: extracellular domain
Protocol: as §1

[4] = target: T4, monomeric soluble human BTLA …; experiment: SPR Biacore 8K 37C, single cycle kinetics;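 further: antibody captured on sensor chip, soluble BTLA extracellular domain flowed over at several concentrations in HBS-EP pH 7.4, rates fitted after subtracting isotype-control reference channel and blank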
Protocol: (§2) The binding affinity and kinetics of humanised BTLA agonist antibodies to human or cynomolgus BTLA were determined by surface plasmon resonance using the Biacore 8K (GE Healthcare). […] Anti-BTLA antibody was then captured onto the biosensor surface and a negative control antibody (human IgG1k isotype control; Sino Biological cat #HG1K) captured in the reference channel. Various concentrations of monomeric soluble human BTLA extracellular domain (BTLA^K31-R151, produced recombinantly in house) or soluble cynomolgus macaque BTLA extracellular domain (BTLA^K31-R151, produced recombinantly in house) were then injected over the immobilized antibodies in the buffer HBS-EP (GE Healthcare, cat #BR100669), pH 7.4 (HBS-P) at 37° C., in a single cycle kinetics analysis.

[5] = target: T3, soluble cynomolgus macaque BTLA …; experiment: SPR Biacore 8K 37C, single cycle kinetics;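 further: antibody captured on sensor chip, soluble BTLA extracellular domain flowed over at several concentrations in HBS-EP pH 7.4, rates fitted after subtracting isotype-control reference channel and blank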
Protocol: as §2
Wherever AntiCD3/CD28 (CD4 T cell proliferation) repeat 1 is given: test concentration or dose not given here.
Wherever AntiCD3/CD28 (CD4 T cell proliferation) repeat 2 is given: test concentration or dose not given here.
Wherever AntiCD3/CD28 (CD69+ CD4 T cells) repeat 1 is given: test concentration or dose not given here.
Wherever AntiCD3/CD28 (CD69+ CD4 T cells) repeat 2 is given: test concentration or dose not given here.
Wherever MLR (CD4 T cell proliferation) repeat 1 is given: test concentration or dose not given here.
Wherever MLR (CD4 T cell proliferation) repeat 2 is given: test concentration or dose not given here.
Wherever T cell reporter (NFκB signaling) is given: test concentration or dose not given here.

Sequence of chimeric BTLA of humanised-BTLA mice (human extracellular region, murine transmembrane and signaling … (Q7TSA3 other isoform, or with tags, fused parts or gaps mutant limits assumed): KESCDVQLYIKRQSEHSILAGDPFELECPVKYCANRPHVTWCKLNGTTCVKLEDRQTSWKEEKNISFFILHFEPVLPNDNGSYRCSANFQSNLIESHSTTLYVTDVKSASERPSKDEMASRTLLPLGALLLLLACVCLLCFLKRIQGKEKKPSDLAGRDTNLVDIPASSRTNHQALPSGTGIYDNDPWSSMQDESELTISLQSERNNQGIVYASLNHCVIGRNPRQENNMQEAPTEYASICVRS
T6 sequence (P08637 17-208 F176V): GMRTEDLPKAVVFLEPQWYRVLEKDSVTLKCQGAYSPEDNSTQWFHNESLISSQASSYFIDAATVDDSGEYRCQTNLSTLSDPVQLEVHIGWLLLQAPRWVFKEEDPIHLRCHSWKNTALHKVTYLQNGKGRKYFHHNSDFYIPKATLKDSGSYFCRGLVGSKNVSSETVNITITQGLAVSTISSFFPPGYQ

Row | Binder | T cell reporter (NFκB signaling) [1] | AntiCD3/CD28 (CD4 T cell proliferation) repeat 1 [2] | AntiCD3/CD28 (CD4 T cell proliferation) repeat 2 [2] | AntiCD3/CD28 (CD69+ CD4 T cells) repeat 1 [2] | AntiCD3/CD28 (CD69+ CD4 T cells) repeat 2 [2] | MLR (CD4 T cell proliferation) repeat 1 [2] | MLR (CD4 T cell proliferation) repeat 2 [2] | Kd [3] | koff [3] | kon [3] | avidity (FcRn pH6) (human FcRn) | Kd (human FcγR2A 131R) | Kd (human FcγR2B) | Kd (human FcγR3A 158V) | Kd [4] | koff [4] | kon [4] | Kd [5] | koff [5] | kon [5]
1 | 3A9 (antibody, IgG1, V domains shown, mIgG1) VH: QVQLKQSGAELVRPGASVKLSCKASGYTFTDYYINWVKQRPGQGLEWIARIYPGSGNTYYNEKFKGKATLTAEKSSSTAYMQLSSLTSEDSAVYFCARGYGNSDYWGQGTTLTVSS VL: DILLTQSPAILSVSPGERVSFSCRASQSIGTRIHWYQQRTNGSPRLLIKYASESISGIPSRFSGSGSGTDFTLSINSVESEDIADYYCQQSNSWPYTFGGGTKLEIK | 27 % inhibition | 9 % inhibition | 9 % inhibition | 22 % inhibition | 34 % inhibition | 7 % inhibition | 24 % inhibition | 4010 nM | 1.63 s⁻¹ | 406000 M⁻¹ s⁻¹ |  |  |  |  |  |  |  |  |  | 
2 | 7A1 (antibody, IgG1, V domains shown, mIgG1) VH: QVQLQQSGPELVKPGASVKISCKASGYAFSSSWMNWVKQRPGKGLEWIGRIYPGDGDTNYNGKFKGKATLTADKSSSTAYMQLSSLTSEDSAVYFCARRGYGYLAYWGQGTLVTVSA VL: DIVMTQSHKFMSTSVGDRVSITCKASQDVSTAVAWYQQKPGQSPKLLIYSASYRYTGVPDRFTGSGSGTDFTFTISSVQAEDLAVYYCQQHYSTPWTFGGGTKLEIK | 20 % inhibition | 14 % inhibition | 17 % inhibition | 28 % inhibition | 38 % inhibition | 23 % inhibition | 29 % inhibition | 40.2 nM | 0.0166 s⁻¹ | 413000 M⁻¹ s⁻¹ |  |  |  |  |  |  |  |  |  | 
3 | 15C6 (antibody, IgG1, V domains shown, mIgG1) VH: QVQLQQSGPELVKPGASVKISCKASGYAFSSSWMNWVKQRPGKGLEWIGRIYPGDGDTNYNGKFKGKATLTADKSSSTAYMQLSSLTSEDSAVYFCARRGYGYLAYWGQGTLVTVSA VL: DIVMTQSHKFMSTSVGDRVSITCKASQDVSTAVAWYQQKPGQSPKLLIYSASYRYTGVPDRFTGSGSGTDFTFTISSVQAEDLAVYYCQQHYSTPYTFGGGTKLEIK | 9 % inhibition | 2 % inhibition | -2 % inhibition | 12 % inhibition | 19 % inhibition | 19 % inhibition | 8 % inhibition | 718 nM | 0.138 s⁻¹ | 193000 M⁻¹ s⁻¹ |  |  |  |  |  |  |  |  |  | 
4 | humanised 2.8.6 hIgG1 delta ac P238D (antibody) chain 1: QVTLKESGPALVKPTQTLTLTCTVSGFSLTTYGVHWIRQPPGKALEWLGVMWPGGRTSYNPSLKSRLTITKDNSKSQVVLTMTNMDPVDTATYYCVRGDYEYDYYAMDYWGQGTLVTVSSASTKGPSVFPLAPSSKSTSGGTAALGCLVKDYFPEPVTVSWNSGALTSGVHTFPAVLQSSGLYSLSSVVTVPSSSLGTQTYICNVNHKPSNTKVDKKVEPKSCDKTHTCPPCPAPPVAGGDSVFLFPPKPKDTLMISRTPEVTCVVVDVSHEDPEVKFNWYVDGVEVHNAKTKPREEQYNSTYRVVSVLTVLHQDWLNGKEYKCKVSNKGLPSSIEKTISKAKGQPREPQVYTLPPSRDELTKNQVSLTCLVKGFYPSDIAVEWESNGQPENNYKTTPPVLDSDGSFFLYSKLTVDKSRWQQGNVFSCSVMHEALHNHYTQKSLSLSP chain 2: EIVLTQSPATLSLSPGERATLSCRASSSVSYMHWYQQKPGQAPRPLIYATSNRATGIPARFSGSGSGTDYTLTISSLEPEDFAVYYCHQWSSNPYTFGQGTKLEIKRTVAAPSVFIFPPSDEQLKSGTASVVCLLNNFYPREAKVQWKVDNALQSGNSQESVTEQDSKDSTYSLSSTLTLSKADYEKHKVYACEVTHQGLSSPVTKSFNRGEC |  |  |  |  |  |  |  |  |  |  | 14.2 nM | 399 µM | 1.17 mM | 1.41 mM |  |  |  |  |  | 
5 | 12F11 (antibody, IgG1, V domains shown, mIgG1) VH: EVQLQQSGPELVKPGASVKISCKASGYTFTDYYMNWVKQSHGKSLEWIGDINPNNGGTSYNQKFKGKATLTVDKSSSTAYMELRSLTSEDSAVYYCARWRQLRSDYWGQGTTLTVSS VL: DIQMTQSPASQSASLGESVTITCLASQTIGTWLAWYQQKPGKSPQLLIYAATSLADGVPSRFSGSGSGTKFSFKISSLQAEDFVSYYCQQLYSTPLTFGAGTKLELK | 30 % inhibition | 5 % inhibition | 9 % inhibition | 30 % inhibition | 40 % inhibition | 28 % inhibition | 23 % inhibition | 722 nM | 0.155 s⁻¹ | 215000 M⁻¹ s⁻¹ |  |  |  |  |  |  |  |  |  | 
6 | Engineered humanised 6.2 (Variant A) (antibody, V domains shown) VH: EVQLVESGGGLVKPGGSLRLSCAASGFTLSSYGMSWVRQAPGKGLEWVASIRSEGQTYYPDSVKGRFTISRDNAKNTLYLQMSSLRAEDTAVYYCTRGGYYGSSPYYWGQGTTVTVSS VL: DIVMTQSPLSLPVTPGEPASISCKSSQSLLYSSNQKNYLAWYQQKPGQSPKLLIYWASTRESGVPDRFSGSGSGTDFTLKISRVEAEDVGVYYCQQYYNYLTFGGGTKVEIKR |  |  |  |  |  |  |  |  |  |  |  |  |  |  | 10.9 nM | 0.00756 s⁻¹ | 694000 M⁻¹ s⁻¹ | 695 nM | 0.0507 s⁻¹ | 72900 M⁻¹ s⁻¹

Further lines, results first:

Row | T cell reporter (NFκB signaling) [1] | AntiCD3/CD28 (CD4 T cell proliferation) repeat 1 [2] | AntiCD3/CD28 (CD4 T cell proliferation) repeat 2 [2] | AntiCD3/CD28 (CD69+ CD4 T cells) repeat 1 [2] | AntiCD3/CD28 (CD69+ CD4 T cells) repeat 2 [2] | MLR (CD4 T cell proliferation) repeat 1 [2] | MLR (CD4 T cell proliferation) repeat 2 [2] | Kd [3] | koff [3] | kon [3] | avidity (FcRn pH6) (human FcRn) | Kd (human FcγR2A 131R) | Kd (human FcγR2B) | Kd (human FcγR3A 158V) | Kd [4] | koff [4] | kon [4] | Kd [5] | koff [5] | kon [5] | Binder
7 | 22 % inhibition | 13 % inhibition | 23 % inhibition | 52 % inhibition | 44 % inhibition | 23 % inhibition | 31 % inhibition | 0.66 nM | 0.00016 s⁻¹ | 243000 M⁻¹ s⁻¹ |  |  |  |  |  |  |  |  |  |  | 24H7 (antibody, IgG1, V domains shown, mIgG1) VH: QVQLQQSGAELVRPGASVTLSCKASGYTFTDYEIHWVKQTLVHGLEWIGPIDPDTGNTAYNQNLKGKAILTADKSSSTAYMELRSLTSEDSAVYYCTRGGYDSDWGFAYWGQGTLVTVSA VL: DIVMTQATPSVPVTPGESVSISCRSSKSLLHSNGNTFLFWFLQRPGQSPQLLIYRMSDLASGVPDRFSGSGSGTAFTLRISRVEAEDVGIYYCMQHLEYPFTFGSGTKLEIK
8 | 23 % inhibition | 10 % inhibition | -4 % inhibition | 39 % inhibition | 35 % inhibition | 8 % inhibition | 17 % inhibition | 43.6 nM | 0.0406 s⁻¹ | 930000 M⁻¹ s⁻¹ |  |  |  |  |  |  |  |  |  |  | 21C7 (antibody, IgG1, V domains shown, mIgG1) VH: QIQLQQSGPELVKPGASVKISCKASGYAFSSSWMNWVKKRPGKGLEWIGRIYPGDGDANYNGKFKGKATLTADKSSSTAYMQLSSLTSEDSAVYFCAGEGHYYGSGYRWYLDVWGTGTTVTVSS VL: DIQMTQSPASLSVSVGETVTITCRASENIYSNLAWYQQKQGKSPQLLVYAATNLADGVPSRFSGSGSGTQYSLKINSLQSEDFGSYYCQHFRGAPFTFGSGTKLEIK
9 | 24 % inhibition | 20 % inhibition | 4 % inhibition | 51 % inhibition | 47 % inhibition | 33 % inhibition | 23 % inhibition | 8.17 nM | 0.0044 s⁻¹ | 538000 M⁻¹ s⁻¹ |  |  |  |  |  |  |  |  |  |  | 8B4 (antibody, IgG1, V domains shown, mIgG1) VH: QVQLQQSGAELARPGASVKLPCKASGYTFTSYGISWVKQRTGQGLEWIGEIYPRSGTTYYNEKFKGKATLTADKSSSTAYMELRSLTSEDSAVYFCARRISSGSGVDYWGQGTTLTVSS VL: DIQMTQTTSSLSASLGDRVTISCSASQGISNYLNWYQQKPDGTVKLLIYYTSSLHSGVPSRFSGSGSGTDYSLTISNLEPEDIATYYCQQYSELPWTFGGGTKLEIK
